The values below come from IntAct's records for PubMed 22364545.

The labels stand for the following.
B1: Fibroblast growth factor 14 (Homo sapiens), Q92915-2 (parent)
chain: MVKPVPLFRRTDFKLLLCNHKDLFFLRVSKLLDCFSPKSMWFLWNIFSKGTHMLQCLCGKSLKKNKNPTDPQLKGIVTRLYCRQGYYLQMHPDGALDGTKDDSTNSTLFNLIPVGLRVVAIQGVKTGLYIAMNGEGYLYPSELFTPECKFKESVFENYYVIYSSMLYRQQESGRAWFLGLNKEGQAMKGNRVKKTKPAAHFLPKPLEVAMYREPSLHDVGETVPKPGVTPSKSTSASAIMNGGKPVNKSKTT

The variants in this test derive from B1. The following applies: with scn8a_human SCN8A.
For MVKPVPLFRRTDFKLLLCNHKDLFFLRVSKLLDCFSPKSMWFLWNIFSKGTHMLQCLCGKSLKKNKNPTDPQLKGIVTRLYCRQGYYLQMHPDGALDGTKDDSTNSTLFNLIPVGLRVVAIQGVKTGLYIAMNGEGYLYPSELFTPECKFKESVFENNYNIYSSMLYRQQESGRAWFLGLNKEGQAMKGNRVKKTKPAAHFLPKPLEVAMYREPSLHDVGETVPKPGVTPSKSTSASAIMNGGKPVNKSKTT [Y158N;V160N], the “effect of a mutation on the interaction” value is on record as “decreasing interaction strength”.
